Test results: patent US7541450B2, “Ligand-dependent protein splicing” (President and Fellows of Harvard College, priority 2004, dated 2009)
Entries after “also recorded” stand apart in the source; their conditions may differ.

Test system: aminoglycoside phosphorylase (KanR)
Format: cell-based, S. cerevisiae

B1: intein(N)-ER-intein(C): starting RecA intein with the estrogen receptor ligand binding domain in place of the endonuclease domain, SEQ ID NO: 1 (protein)
chain: CLAEGTRIFDPVTGTTHRIEDVVDGRKPIHVVAAAKDGTLHARPVVSWFDQGTRDVIGLRIAGGAIVWATPDHKVLTEYGWRAAGELRKGDRVAGPGGSGNSLALSLTADQMVSALLDAEPPILYSEYDPTRPFSEASMMGLLTNLADRELVHMINWAKRVPGFVDLTLHDQVHLLECAWLEILMIGLVWRSMEHPGKLLFAPNLLLDRNQGKCVEGMVEIFDMLLATSSRFRMMNLQGEEFVCLKSIILLNSGVYTFLSSTLKSLEEKDHIHRVLDKITDTLIHLMAKAGLTLQQQHQRLAQLLLILSHIRHMSNKRMEHLYSMKCKNVVPLYDLLLEMLDAHRLHAGGSGASRVQAFADALDDKFLHDMLAEELRYSVIREVLPTRRARTFDLEVEELHTLVAEGVVVHN
modifications: M. tuberculosis RecA intein with the estrogen ligand binding domain inserted in place of the RecA endonuclease domain with six amino acid linkers in between.
- geneticin resistance (growth) in the KanR context: confers no geneticin resistance in the presence or absence of 4-HT; also recorded: unable to grown; also recorded: fails to confer geneticin resistance
